± gives the uncertainty stated by the source.
Experiment: protein stability index of a GFP-peptide fusion (yeast GPS) (PSI 1-4); higher = more stable; sorted into four equal gates, so the index is relative within each strain
Outline: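 Plasmids in a pooled yeast library fused tiled 17-residue yeast protein peptides downstream of GFP and also expressed Cherry. Mid-log cultures grown without leucine were sorted into four equal gates by GFP/Cherry fluorescence ratio. Each gate's plasmids were PCR-amplified and Illumina-sequenced, and reads were matched to strains by barcodes. The protein stability index is derived by multiplying each gate's read frequency by its gate number and summing the results.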

Sequence | protein stability index (doa10∆) | protein stability index (pdr5∆) | protein stability index (san1∆) | protein stability index (ubr1∆)
KWQTLIEANVTVKTSDD [RPS1A] | 1.42 ± 0.05 | 1.62 ± 0.044 | 1.61 ± 0.078 | 1.67 ± 0.037
DVKLVLASNFDNFDYFN [MED1] | 3.17 ± 0.065 | 3.19 ± 0.068 | 3.2 ± 0.07 | 3.15 ± 0.056
EALIEFIYDTEKNGGLG [FAS2] | 2.52 ± 0.079 | 2.63 ± 0.076 | 2.67 ± 0.054 | 2.17 ± 0.055
DSMKYTISSLFVQLCEM [RPC82] | 1.86 ± 0.044 | 2.26 ± 0.042 | 2.15 ± 0.062 | 2.17 ± 0.043
IKNVQDLLILTRSIKEK [SRB6] | 1.34 ± 0.11 | 1.31 ± 0.13 |  | 1.76 ± 0.2
HTPTIASYLTPLLEAKK [SSN2] | 3.04 ± 0.063 | 3.04 ± 0.051 | 3.01 ± 0.049 | 3.07 ± 0.048
ADKSLPSSMATLLKNLR [YJR042W/NUP85] | 2.97 ± 0.081 | 2.81 ± 0.077 | 2.87 ± 0.054 | 2.86 ± 0.057
TYKYPSLKGVDPKFRRN [RPL29] | 3.03 ± 0.11 | 2.88 ± 0.25 | 2.97 ± 0.12 | 3.12 ± 0.09
EVTEEQAEATEWAEENA [RPS0A] | 3.48 ± 0.13 | 3.51 ± 0.1 | 2.99 ± 0.13 | 3.62 ± 0.095
GNDFKFNYQGDELVLNF [REC8] | 3.34 ± 0.078 | 3.42 ± 0.083 | 3.34 ± 0.053 | 3.17 ± 0.047
FKVQELLHSKPSLLLQK [NAS6] | 2.23 ± 0.13 | 2.3 ± 0.074 | 2.64 ± 0.14 | 2.31 ± 0.084
HHFTCEITGTSCLTFFQ [ITC1] | 1.9 ± 0.05 | 2.2 ± 0.057 | 2.04 ± 0.078 | 2.07 ± 0.047
IVISLKNTMFEKSDALV [SMC1] | 2.42 ± 0.071 | 2.36 ± 0.062 | 2.55 ± 0.059 | 2.47 ± 0.042
LREEIFIANEGVHTGQF [RPL2A] | 2.8 ± 0.084 | 2.84 ± 0.074 | 2.92 ± 0.06 | 3.03 ± 0.059
PGRLDRKIEFPSLRDRR [RPT3] | 3.35 ± 0.044 | 3.31 ± 0.061 | 3.23 ± 0.048 | 3.23 ± 0.039
MSIVFGDKFSEDFRIQF [UBP6] | 3.28 ± 0.13 | 2.71 ± 0.1 | 2.2 ± 0.092 | 2.37 ± 0.063
QLEDESSRLEFVKGISR [YML103C/NUP188] | 3.45 ± 0.095 | 3.2 ± 0.11 | 3.33 ± 0.067 | 3.21 ± 0.099
KDTIVKEAEDKTLVALE [RPC37] | 3.4 ± 0.11 | 3.11 ± 0.093 | 3.33 ± 0.19 | 3.18 ± 0.097
FTVDKKIAERSLLLKNY [SKP1] | 3.44 ± 0.15 | 3.11 ± 0.14 | 2.92 ± 0.14 | 3.38 ± 0.27
NIGETAGVVQDIGSDPT [RPB9] | 2.77 ± 0.089 | 3.25 ± 0.085 | 2.72 ± 0.11 | 2.92 ± 0.056
HPFGHALVAGIERYPSK [RPL27B] | 2.43 ± 0.14 | 2.67 ± 0.1 | 2.24 ± 0.16 | 2.46 ± 0.17
QANPTEESISKFPDMGS [RPB5] | 3.23 ± 0.082 | 3.26 ± 0.076 | 3.04 ± 0.074 | 3.26 ± 0.087
KIRELEAELSSTKVENS [YIL149C/MLP2] | 2.79 ± 0.13 | 3.12 ± 0.099 | 3.23 ± 0.089 | 3.12 ± 0.064
PLSNEVFEISENNSDSN [SWI1] | 3 ± 0.063 | 3.04 ± 0.068 | 2.84 ± 0.084 | 2.98 ± 0.058
SPTENGVFDPASYAKYL [RPL22A] | 2.98 ± 0.051 | 3.19 ± 0.061 | 3.08 ± 0.045 | 2.88 ± 0.043

Sequence | protein stability index (doa10∆) | protein stability index (pdr5∆) | protein stability index (san1∆) | protein stability index (ubr1∆)
LKFVKVRVRTTKIPQIG [RPB2] | 2.51 ± 0.073 | 2.55 ± 0.079 | 2.85 ± 0.13 | 2.52 ± 0.04
VLVVRGSKKGQEGKISS [RPL26A] | 3.54 ± 0.085 | 3.19 ± 0.099 | 3.06 ± 0.068 | 3.44 ± 0.084
DNSPSEDFMDIPKPRTA [SNF2] | 2.57 ± 0.16 | 2.83 ± 0.11 |  | 2.77 ± 0.19
AMREVNDEKRVKEEYDI [YIL149C/MLP2] | 2.62 ± 0.25 | 2.57 ± 0.17 |  | 
SLYIFFTTLLESKQDGL [YML103C/NUP188] | 2.29 ± 0.12 | 1.42 ± 0.085 | 1.25 ± 0.1 | 1.19 ± 0.036
EILVEESGLRPVSLLNS [PCI8] | 2.63 ± 0.1 | 3.21 ± 0.1 | 3.16 ± 0.063 | 2.54 ± 0.087
IVMEDHGVLQGTSQNYG [MED1] | 3.11 ± 0.059 | 3.02 ± 0.067 | 3.13 ± 0.062 | 3.07 ± 0.049
KNNSSIRNVIMSASNAN [SRB8] | 1.59 ± 0.037 | 2.13 ± 0.053 | 1.88 ± 0.095 | 1.75 ± 0.044
GGQIAHILFQNNPDMMI [ROX3] | 2.54 ± 0.041 | 2.63 ± 0.046 | 2.59 ± 0.052 | 2.97 ± 0.046
RIYDREPTVRIQAVFCL [YCG1] | 2.47 ± 0.11 | 1.72 ± 0.15 | 1.61 ± 0.21 | 2.39 ± 0.1
SELIRTTLDAEKVFTQG [FAS1] | 3.14 ± 0.067 | 3.16 ± 0.066 | 3.22 ± 0.079 | 3.08 ± 0.07
QVEYALEAIKQGSVTVG [PRE5] | 2.92 ± 0.12 | 3.33 ± 0.21 | 3.14 ± 0.17 | 3.09 ± 0.18
TRSLKYGKLRNGMFCQV [RRP4] | 1.42 ± 0.081 | 1.11 ± 0.1 | 1.09 ± 0.13 | 1.07 ± 0.12
LEEEFVSNSEILKPFEK [RPT2] | 2.85 ± 0.074 | 2.88 ± 0.054 | 3.05 ± 0.073 | 2.51 ± 0.14
KVVKTPGGILRAQHVKK [RPL34A] | 2.76 ± 0.074 | 2.83 ± 0.077 | 2.9 ± 0.064 | 2.71 ± 0.063
AQAQAQAQAQAHAQHQP [GAL11] | 2.81 ± 0.029 | 2.926 ± 0.023 | 2.834 ± 0.027 | 3.032 ± 0.024
RRRREGKTDYYQRKRLV [RPL5] | 3.31 ± 0.094 | 3.26 ± 0.079 | 3.13 ± 0.046 | 3.26 ± 0.035
MTNLTYFLHLSVFNAEL [YCS4] | 1.62 ± 0.061 | 1.48 ± 0.047 | 1.87 ± 0.09 | 1.76 ± 0.073
KFLREVFVDGEANWPLP [RPO21] | 2.85 ± 0.085 | 3.16 ± 0.079 | 3.04 ± 0.093 | 3.12 ± 0.074
SPAVKKLLQLAGVEDVY [RPS2] | 1.58 ± 0.062 | 1.76 ± 0.14 |  | 2.05 ± 0.2
VQGMNDDIFIRYLTLLS [ECM29] | 1.37 ± 0.053 | 1.39 ± 0.057 | 1.8 ± 0.14 | 1.15 ± 0.031
PLQVARCTKIIKGNGES [RPT1] | 2.96 ± 0.16 | 2.96 ± 0.081 | 2.72 ± 0.09 | 2.01 ± 0.14
PVQSKFGRKKRKGGPAT [RPT2] | 3.47 ± 0.23 | 3.11 ± 0.14 | 2.99 ± 0.095 | 3.22 ± 0.16
ELLANKCPLLVEVDITL [GRR1] | 1.44 ± 0.06 | 1.58 ± 0.047 | 1.59 ± 0.082 | 1.47 ± 0.041
TLYIGNTANGRPPVKAI [ECM29] | 1.84 ± 0.17 | 2 ± 0.094 | 1.99 ± 0.11 | 1.47 ± 0.11
